From US20250264470A1 (RHODE ISLAND HOSPITAL, published 2025)

Target: T1, NPVEDS peptide (LRC1 epitope, residues 286-291 of ASPH) (human)
T1 peptide: NPVEDS
Test: peptide inhibition (data not shown)

B1: LRC1 monoclonal antibody (antibody, V domains shown)
VH: EVQLVESGGGLVKPGGSLKFSCAASGFTFSRYAMPWVRQTPEKRLEWVATISSGGSYTYYPDSVKGRLTISRDNAKNTLYLQMSSLRSEDTAMYYCARQGNYYGSSHLYYAMDYWGQGTSVTVSS
VL: QLVLTQSSSASFSLGASAKLTCTLNSQHRAYTIEWYQQQPLKPPKYVMELKKDGSHSTGDGIPDRFSGSSSGADRYLSISNIQPEDEAIYICGVGDTIKEQFVYVFGGGTKVTVL
notes: also called LRC1 mAb; LRC1 antibody
- binding result: binds
